Earlier results in publication PMC5936680.

Target: Hemoglobin αβ dimer (Homo sapiens) (UniProt P69905)

Kd: 1000 nM
Substance: Hemoglobin αβ dimer (from UniProt P69905)
